Test results published in patent US20250197496A1 (EVOLVELMMUNE THERAPEUTICS, published 2025).
Changes are numbered by the printed parent chain.

B1: EIP0373 (bispecific antibody)
heavy 1: EVQLLESGGGLVQPGGSLKLSCAASGFTFNTYAMNWVRKAPGKGLEWVARIRSKYNNYATYYADSVKDRFTISRDDSKNTAYLQMNNLKTEDTAVYYCVRHGNFGNSYVSWFAYWGQGTLVTVSSASTKGPSVFPLAPSSKSTSGGTAALGCLVKDYFPEPVTVSWNSGALTSGVHTFPACLQSSGLYSLSSVVTVPSSSLGTQTYICNVNHKPSNTKVDKKVEPKSSDKTHTCPPCPAPEAAGAPSVFLFPPKPKDTLMISRTPEVTCVVVDVSHEDPEVKFNWYVDGVEVHNAKTKPREEQYNSTYRVVSVLTVLHQDWLNGKEYKCKVSNKALPAPIEKTISKAKGQPREPQVCTLPPSREEMTKNQVSLSCAVKGFYPSDIAVEWESNGQPENNYKTTPPVLDSDGSFFLVSKLTVDKSRWQQGNVFSCSVMHEALHNHYTQKSLSLSPG
light 1: ELVVTQEPSLTVSPGGTVTLTCRSSTGAVTTSNYANWVQDKPGQAPRGLIGGTNKRAPGTPARFSGSLLGGKAALTLSGVQPEDEAEYYCALWYSNLWVFGGGTKLTVLGQPKANPTVTLFPPSSEELQANKADLVCLISDFYPGAVTVAWKADGSPVKAGVETCKPSKQSNNKYAASSYLSLTPEQWKSHRSYSCQVTHEGSTVEKTVAPTESS
heavy 2: not shown
light 2: not shown
notes: IgG1 bispecific, pairing set D; also called EGFR(Cetuximab)-SP34; V373
B2: EIP0504 (bispecific antibody, V domains shown)
VH 1: EVQLLESGGGLVQPGGSLKLSCAASGFTFNTYAMNWVRKAPGKGLEWVARIRSKYNNYATYYADSVKDRFTISRDDSKNTAYLQMNNLKTEDTAVYYCVRHGNFGNSYVSWFAYWGQGTLVTVSS
VL 1: ELVVTQEPSLTVSPGGTVTLTCRSSTGAVTTSNYANWVQDKPGQAPRGLIGGTNKRAPGTPARFSGSLLGGKAALTLSGVQPEDEAEYYCALWYSNLWVFGGGTKLTVL
VH 2: EVQLVQSGAEVKKPGESLKISCKGSGYAFSTSWMNWVRQMPGKGLEWMGRIYPGDGDTNYNGNFKGQVTISADKSISTAYLQWSSLKASDTAMYYCARGGELRLEAMDSWGQGTLVTVSS
VL 2: EIVMTQSPATLSLSPGERITLSCSASSSIHSNYLHWYQQKPGQAPRLLIYRTSNLASGIPARFSGSGSGTDFTLTISSLQPEDFAVYYCQQGFSIPFTFGQGTKLEIK
notes: also called ULBP2(A06)-SP34; EV104.2:CD3.1
B3: EIP0506 (bispecific antibody, human IgG1, kappa, lambda)
heavy 1: B1 heavy 1
light 1: B1 light 1
heavy 2: QVQLVQSGAEVKKPGSSVKVSCKASGGTFSNYWMHWVRDAPGQGLEWMGATYRGHSDTYYNQKFKGRVTITADKSTSTAYMELSSLRSEDTAVYYCARGAIYDGYDVLDNWGQGTLVTVSSASTKGPSVFPLAPSSKSTSGGTAALGCLVDDYFPEPVTVSWNSGALTSGVHTFPAVLQSSGLYSLSSVVTVPSSSLGTQTYICNVNHKPSNTKVDKKVEPKSCDKTHTCPPCPAPEAAGAPSVFLFPPKPKDTLMISRTPEVTCVVVDVSHEDPEVKFNWYVDGVEVHNAKTKPREEQYNSTYRVVSVLTVLHQDWLNGKEYKCKVSNKALPAPIEKTISKAKGQPREPQVYTLPPCREEMTKNQVSLWCLVKGFYPSDIAVEWESNGQPENNYKTTPPVLDSDGSFFLYSKLTVDKSRWQQGNVFSCSVMHEALHNHYTQKSLSLSPG
light 2: not shown
notes: IgG1 bispecific, pairing set D; also called BCMA(Belantamab)-SP34; V506
B4: ULBP2xCD3 bispecific CD58 fusion containing CD3 variant CD3-01 (bispecific antibody, V domains shown)
VH: B2 VH 1
VL: B2 VL 1
B5: ULBP2xCD3 bispecific CD58 fusion containing CD3 variant CD3-A2 (bispecific antibody, V domains shown)
VH: B2 VH 1
VL: B2 VL 1 with G52D
B6: ULBP2xCD3 bispecific CD58 fusion containing CD3 variant CD3-A5 (bispecific antibody, V domains shown)
VH: B2 VH 1 with N106D, S107D
VL: B2 VL 1 with N96Q
B7: ULBP2xCD3 bispecific CD58 fusion containing CD3 variant CD3-A6 (bispecific antibody, V domains shown)
VH: B2 VH 1 with T31D
VL: B2 VL 1
B8: ULBP2xCD3 bispecific CD58 fusion containing CD3 variant CD3-A8 (bispecific antibody, V domains shown)
VH: B2 VH 1 with R50K, N106D
VL: B2 VL 1 with N96Q
B9: ULBP2xCD3 bispecific CD58 fusion containing CD3 variant CD3-A9 (bispecific antibody, V domains shown)
VH: B2 VH 1 with N103S
VL: B2 VL 1 with N96Q

The binders below were run against EGFR (UniProt P00533 25-645, limits assumed) (assay: sandwich ELISA, plate coated with antigen (legend paragraph 82 names no antigen; EGFR taken as the antigen of the cetuximab arm), luminescence (RLU)).

Row | Binder | EC50 (read off the curve)
1 | B1 | ~0.3 µg/mL

Each binder was assayed against T1, human CD3 epsilon (recombinant, plate-coated) (human, UniProt P07766 23-126) (assay: sandwich ELISA, plate coated with CD3ε, luminescence (RLU)).
T1 construct: also called CD3ε; Hu CD3 epsilon

Row | Binder | EC50 (read off the curve)
2 | B2 | ~0.4 µg/mL
3 | B1 | ~0.3 µg/mL
4 | B3 | ~0.5 µg/mL

The binders below were run against T2, cynomolgus CD3 epsilon/delta heterodimer, biotin labeled (cynomolgus, UniProt Q95LI8 22-105, biotin labeled) (assay: SPR, biotinylated CD3e/d on SA chip;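 also: analytes injected over immobilized CD3 heterodimer, association 60-120 s and dissociation 120-420 s, rate and affinity constants obtained by fitting sensorgrams to a 1:1 binding model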).
T2 construct: bought (Acro Biosystems); also called Cyno CD3e/d
T2 sequence (chain, as listed by the source mutant, chain 1 of 2): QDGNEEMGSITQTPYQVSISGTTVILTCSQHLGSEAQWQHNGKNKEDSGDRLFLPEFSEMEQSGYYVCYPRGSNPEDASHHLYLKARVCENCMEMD
T2 sequence (Q95LI8 22-105, stated change not applied, chain 2 of 2): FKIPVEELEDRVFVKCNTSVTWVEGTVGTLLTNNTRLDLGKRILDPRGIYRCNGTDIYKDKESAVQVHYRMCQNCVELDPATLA

Row | Binder | Kd | koff | kon
5 | B4 | 3.2 nM | 0.00515 s⁻¹ | 1.6e+06 M⁻¹ s⁻¹
6 | B5 | 89 nM | 0.0227 s⁻¹ | 256000 M⁻¹ s⁻¹
7 | B6 | 368 nM | 0.0337 s⁻¹ | 91700 M⁻¹ s⁻¹
8 | B7 | 75 nM | 0.0418 s⁻¹ | 558000 M⁻¹ s⁻¹
9 | B8 | 137 nM | 0.0614 s⁻¹ | 448000 M⁻¹ s⁻¹
10 | B9 | 212 nM | 0.0718 s⁻¹ | 338000 M⁻¹ s⁻¹

Each binder was assayed against T3, human CD3 epsilon/delta heterodimer, biotin labeled (human, UniProt P04234 22-105, biotin labeled) (assay: SPR, biotinylated CD3e/d on SA chip;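 also: analytes injected over immobilized CD3 heterodimer, association 60-120 s and dissociation 120-420 s, rate and affinity constants obtained by fitting sensorgrams to a 1:1 binding model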).
T3 construct: bought (Acro Biosystems); also called Human CD3e/d

Row | Binder | Kd | koff | kon
11 | B4 | 4.7 nM | 0.00819 s⁻¹ | 1.76e+06 M⁻¹ s⁻¹
12 | B5 | 102 nM | 0.0263 s⁻¹ | 257000 M⁻¹ s⁻¹
13 | B6 | 354 nM | 0.0245 s⁻¹ | 69200 M⁻¹ s⁻¹
14 | B7 | 75 nM | 0.0479 s⁻¹ | 640000 M⁻¹ s⁻¹
15 | B8 | 147 nM | 0.0635 s⁻¹ | 432000 M⁻¹ s⁻¹
16 | B9 | 155 nM | 0.101 s⁻¹ | 654000 M⁻¹ s⁻¹

The binders below were run against T4, Human ULBP2 (recombinant) (human, UniProt Q9BZM5 26-217) (assay: sandwich ELISA, plate coated with antigen (legend paragraph 82 names no antigen; ULBP2 taken as the antigen of this antibody's target arm), luminescence (RLU)).
T4 construct: bought (R&D Systems) as ULBP2-Fc or ULBP2-His; also called recombinant ULBP2
T4 sequence: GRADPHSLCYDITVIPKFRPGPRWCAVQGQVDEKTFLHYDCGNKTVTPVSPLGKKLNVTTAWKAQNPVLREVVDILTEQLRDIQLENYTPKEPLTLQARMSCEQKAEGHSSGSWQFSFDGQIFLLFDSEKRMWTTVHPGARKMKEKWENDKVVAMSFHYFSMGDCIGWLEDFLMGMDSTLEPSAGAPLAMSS

Row | Binder | EC50 (read off the curve)
17 | B2 | ~0.6 µg/mL
